# In patent US20220089725A1:
# Columns and labels:
# [1] = molecular target: human FCMR on blood cells (human) (UniProt O60667); test: flow cytometry of fresh human whole blood, isotype control row of the right (3F9) panel; gated subset not stated; FMO row reads 24.7
# [2] = molecular target: human FCMR on blood cells (human) (UniProt O60667); test: flow cytometry of fresh human whole blood, isotype control row of the left (2A5) panel; gated subset not stated; FMO row reads 24.7
# [3] = molecular target: human FCMR on blood cells (human) (UniProt O60667); test: flow cytometry of fresh human whole blood, gated CD3+CD8+ T cells, aToso 2A5 : AF647, left panel
# [4] = molecular target: human FCMR on blood cells (human) (UniProt O60667); test: flow cytometry of fresh human whole blood, gated CD19+ B cells, aToso 2A5 : AF647, left panel
# [5] = molecular target: recombinant human FCMR-Fc (human) (UniProt O60667); test: SPR (Biacore), 25 C, antibody immobilised, FCMR-Fc titrated at 500 to 0 nM
# [6] = molecular target: human FCMR on blood cells (human) (UniProt O60667); test: flow cytometry of fresh human whole blood, gated CD3+CD4+ T cells, aToso 2A5 : AF647, left panel
# Sequence of UniProt O60667 (O60667 17-390): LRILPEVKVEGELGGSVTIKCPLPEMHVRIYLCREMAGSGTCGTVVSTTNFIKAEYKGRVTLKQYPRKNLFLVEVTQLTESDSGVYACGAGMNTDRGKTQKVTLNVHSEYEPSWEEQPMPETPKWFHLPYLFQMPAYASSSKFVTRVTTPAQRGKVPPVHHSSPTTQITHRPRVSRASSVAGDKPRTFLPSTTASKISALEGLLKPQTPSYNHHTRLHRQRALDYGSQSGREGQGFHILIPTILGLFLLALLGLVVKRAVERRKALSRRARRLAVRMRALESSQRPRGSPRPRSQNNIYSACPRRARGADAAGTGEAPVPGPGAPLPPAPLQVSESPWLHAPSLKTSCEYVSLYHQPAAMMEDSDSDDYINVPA
mean fluorescence intensity [1],mean fluorescence intensity [2],mean fluorescence intensity [3],mean fluorescence intensity [4],Kd [5] [nM],koff [5] [s⁻¹],kon [5] [M⁻¹ s⁻¹],mean fluorescence intensity [6],Molecule
25.6,25.6,–,–,–,–,–,–,Isotype Control (antibody)
–,–,414,960,7.21,0.000247,34700,247,"FCMR 2A5 antibody (antibody, V domains shown) VH: EVQLVESGGDLVKPGGSLKLSCAASGFTFSSYGMSWVRQTPDKRLEWVATINSGGSSIYYPDSVKGRFTISRDNAKNTLYLQMSSLKSEDTAMYYCARHNYDSSYRYAMDYWGQGTSVTVSS VL: DIKMTQSPSSMYASLGERVTITCKASQDINNFLSWFQQKPGKSPKTLIYRANGLVDGVPSRFSGSGSGQDYSLTISSLEYEDMGIYYCLQYDEFPPTFGGGTKLEFKR"
